Target: T1, Human OSM (human, UniProt P13725 26-221)
T1 construct: Recombinant human OSM; also called hOSM; human Oncostatin M
T1 sequence: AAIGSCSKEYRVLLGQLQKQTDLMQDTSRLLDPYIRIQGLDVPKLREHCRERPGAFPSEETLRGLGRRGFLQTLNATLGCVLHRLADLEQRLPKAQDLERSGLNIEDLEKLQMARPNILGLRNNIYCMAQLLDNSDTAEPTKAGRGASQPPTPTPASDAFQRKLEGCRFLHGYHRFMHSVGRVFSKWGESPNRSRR
Experiment: SPR (ProteOn XPR36 or Biacore T100), captured supernatant, OSM as analyte
Description: The initial kinetic analyses for the CDRH3 screen were carried out on the ProteOn XPR36 (Biorad Laboratories) and certain supernatants were selected for more accurate kinetic analysis on the BiaCore T100.
For the ProteOn analysis, anti-human IgG (GE Healthcare/Biacore BR-1008-39) was coupled to a GLM chip (Biorad Laboratories 176-5012) by primary amine coupling. The CDRH3 variants were captured directly on to this surface and recombinant human OSM was passed over the captured antibody surface at 256, 64, 16, 4 and 1 nM, with a buffer injection alone (i.e. 0 nM) used to double reference the binding curves. Following the OSM binding event, the capture surfaces were regenerated: with 3M MgCl₂ the regeneration removed the previously captured antibody ready for another cycle of capture and binding analysis. The data was then fitted to the 1:1 model (with mass transport) inherent to the ProteOn analysis software. The run was carried out using HBS-EP (Biacore/GE-Healthcare BR-1006-69) and the analysis temperature was 25° C.
A similar method was used for analysis of constructs using the Biacore T100, anti-human IgG (GE Healthcare/Biacore BR-1008-39) was coupled to a CM5 chip (GE Healthcare/Biacore BR-1006-68) by primary amine coupling, antibodies were captured on this surface and recombinant human OSM was passed over the captured antibody surface at 256, 64, 16, 4 and 1 nM, with a buffer injection alone (i.e. 0 nM) used to double reference the binding curves. Regeneration was by using pulses of 3M 3M MgCl₂ or 100 mM phosphoric acid or using both reagents. The data was fitted to the 1:1 model inherent to the Biacore T100 analysis software. The run was carried out using HBS-EP (Biacore/GE-Healthcare BR-1006-69) and the analysis temperature was 25° C.

B1: Pos 95 Met (antibody, V domains shown)
VH: EVQLVESGGGLVQPGGSLRLSCAASGFTFSSYAMSWVRQAPGKGLEWVATISDGGSFTYYLDNVRGRFTISRDNAKNSLYLQMNSLRAEDTAVYYCARMVGHTTFWYFDVWGRGTLVTVSS
VL: DIVMTQSPDSLAVSLGERATINCRASKSVSAAGYNFMHWYQQKPGQPPKVLIYYASNLESGVPDRFSGSGSGTDFTLTISSLQAEDVAVYYCLHSREFPFTFGGGTKVEIKR
notes: also called CDRH3 D95>M
A Kd of 0.649 nM was found for B1 in this work.

B2: Pos 96 Gly (antibody, V domains shown)
VH: EVQLVESGGGLVQPGGSLRLSCAASGFTFSSYAMSWVRQAPGKGLEWVATISDGGSFTYYLDNVRGRFTISRDNAKNSLYLQMNSLRAEDTAVYYCARDGGHTTFWYFDVWGRGTLVTVSS
VL: DIVMTQSPDSLAVSLGERATINCRASKSVSAAGYNFMHWYQQKPGQPPKVLIYYASNLESGVPDRFSGSGSGTDFTLTISSLQAEDVAVYYCLHSREFPFTFGGGTKVEIKR
notes: also called CDRH3 V96>G
A Kd of 0.488 nM was found for B2 in this work.

B3: Pos 96 His (antibody, V domains shown)
VH: EVQLVESGGGLVQPGGSLRLSCAASGFTFSSYAMSWVRQAPGKGLEWVATISDGGSFTYYLDNVRGRFTISRDNAKNSLYLQMNSLRAEDTAVYYCARDHGHTTFWYFDVWGRGTLVTVSS
VL: DIVMTQSPDSLAVSLGERATINCRASKSVSAAGYNFMHWYQQKPGQPPKVLIYYASNLESGVPDRFSGSGSGTDFTLTISSLQAEDVAVYYCLHSREFPFTFGGGTKVEIKR
notes: also called CDRH3 V96>H
A Kd of 0.48 nM was found for B3 in this work.

B4: Pos 96 Lys (antibody, V domains shown)
VH: EVQLVESGGGLVQPGGSLRLSCAASGFTFSSYAMSWVRQAPGKGLEWVATISDGGSFTYYLDNVRGRFTISRDNAKNSLYLQMNSLRAEDTAVYYCARDKGHTTFWYFDVWGRGTLVTVSS
VL: DIVMTQSPDSLAVSLGERATINCRASKSVSAAGYNFMHWYQQKPGQPPKVLIYYASNLESGVPDRFSGSGSGTDFTLTISSLQAEDVAVYYCLHSREFPFTFGGGTKVEIKR
notes: also called CDRH3 V96>K
A Kd of 0.671 nM was found for B4 in this work.

B5: Pos 96 Phe (antibody, V domains shown)
VH: EVQLVESGGGLVQPGGSLRLSCAASGFTFSSYAMSWVRQAPGKGLEWVATISDGGSFTYYLDNVRGRFTISRDNAKNSLYLQMNSLRAEDTAVYYCARDFGHTTFWYFDVWGRGTLVTVSS
VL: DIVMTQSPDSLAVSLGERATINCRASKSVSAAGYNFMHWYQQKPGQPPKVLIYYASNLESGVPDRFSGSGSGTDFTLTISSLQAEDVAVYYCLHSREFPFTFGGGTKVEIKR
notes: also called CDRH3 V96>F
A Kd of 0.61 nM was found for B5 in this work.

B6: Pos 97 Ala (antibody, V domains shown)
VH: EVQLVESGGGLVQPGGSLRLSCAASGFTFSSYAMSWVRQAPGKGLEWVATISDGGSFTYYLDNVRGRFTISRDNAKNSLYLQMNSLRAEDTAVYYCARDVAHTTFWYFDVWGRGTLVTVSS
VL: DIVMTQSPDSLAVSLGERATINCRASKSVSAAGYNFMHWYQQKPGQPPKVLIYYASNLESGVPDRFSGSGSGTDFTLTISSLQAEDVAVYYCLHSREFPFTFGGGTKVEIKR
notes: also called CDRH3 G97>A
A Kd of 0.486 nM was found for B6 in this work.

B7: Pos 97 Cys (antibody, V domains shown)
VH: EVQLVESGGGLVQPGGSLRLSCAASGFTFSSYAMSWVRQAPGKGLEWVATISDGGSFTYYLDNVRGRFTISRDNAKNSLYLQMNSLRAEDTAVYYCARDVCHTTFWYFDVWGRGTLVTVSS
VL: DIVMTQSPDSLAVSLGERATINCRASKSVSAAGYNFMHWYQQKPGQPPKVLIYYASNLESGVPDRFSGSGSGTDFTLTISSLQAEDVAVYYCLHSREFPFTFGGGTKVEIKR
notes: also called CDRH3 G97>C
A Kd of 0.651 nM was found for B7 in this work.

B8: Pos 97 Met (antibody, V domains shown)
VH: EVQLVESGGGLVQPGGSLRLSCAASGFTFSSYAMSWVRQAPGKGLEWVATISDGGSFTYYLDNVRGRFTISRDNAKNSLYLQMNSLRAEDTAVYYCARDVMHTTFWYFDVWGRGTLVTVSS
VL: DIVMTQSPDSLAVSLGERATINCRASKSVSAAGYNFMHWYQQKPGQPPKVLIYYASNLESGVPDRFSGSGSGTDFTLTISSLQAEDVAVYYCLHSREFPFTFGGGTKVEIKR
notes: also called CDRH3 G97>M
A Kd of 0.809 nM was found for B8 in this work.

B9: Pos 97 Phe (antibody, V domains shown)
VH: EVQLVESGGGLVQPGGSLRLSCAASGFTFSSYAMSWVRQAPGKGLEWVATISDGGSFTYYLDNVRGRFTISRDNAKNSLYLQMNSLRAEDTAVYYCARDVFHTTFWYFDVWGRGTLVTVSS
VL: DIVMTQSPDSLAVSLGERATINCRASKSVSAAGYNFMHWYQQKPGQPPKVLIYYASNLESGVPDRFSGSGSGTDFTLTISSLQAEDVAVYYCLHSREFPFTFGGGTKVEIKR
notes: also called CDRH3 G97>F
A Kd of 0.637 nM was found for B9 in this work.

B10: Pos 98 Ala (antibody, V domains shown)
VH: EVQLVESGGGLVQPGGSLRLSCAASGFTFSSYAMSWVRQAPGKGLEWVATISDGGSFTYYLDNVRGRFTISRDNAKNSLYLQMNSLRAEDTAVYYCARDVGATTFWYFDVWGRGTLVTVSS
VL: DIVMTQSPDSLAVSLGERATINCRASKSVSAAGYNFMHWYQQKPGQPPKVLIYYASNLESGVPDRFSGSGSGTDFTLTISSLQAEDVAVYYCLHSREFPFTFGGGTKVEIKR
notes: also called CDRH3 H98>A
A Kd of 0.659 nM was found for B10 in this work.

B11: Pos 98 Gln (antibody, V domains shown)
VH: EVQLVESGGGLVQPGGSLRLSCAASGFTFSSYAMSWVRQAPGKGLEWVATISDGGSFTYYLDNVRGRFTISRDNAKNSLYLQMNSLRAEDTAVYYCARDVGQTTFWYFDVWGRGTLVTVSS
VL: DIVMTQSPDSLAVSLGERATINCRASKSVSAAGYNFMHWYQQKPGQPPKVLIYYASNLESGVPDRFSGSGSGTDFTLTISSLQAEDVAVYYCLHSREFPFTFGGGTKVEIKR
notes: also called CDRH3 H98>Q
A Kd of 0.729 nM was found for B11 in this work.

B12: Pos 98 Gly (antibody, V domains shown)
VH: EVQLVESGGGLVQPGGSLRLSCAASGFTFSSYAMSWVRQAPGKGLEWVATISDGGSFTYYLDNVRGRFTISRDNAKNSLYLQMNSLRAEDTAVYYCARDVGGTTFWYFDVWGRGTLVTVSS
VL: DIVMTQSPDSLAVSLGERATINCRASKSVSAAGYNFMHWYQQKPGQPPKVLIYYASNLESGVPDRFSGSGSGTDFTLTISSLQAEDVAVYYCLHSREFPFTFGGGTKVEIKR
notes: also called CDRH3 H98>G
A Kd of 1.11 nM was found for B12 in this work.

B13: Pos 98 Phe (antibody, V domains shown)
VH: EVQLVESGGGLVQPGGSLRLSCAASGFTFSSYAMSWVRQAPGKGLEWVATISDGGSFTYYLDNVRGRFTISRDNAKNSLYLQMNSLRAEDTAVYYCARDVGFTTFWYFDVWGRGTLVTVSS
VL: DIVMTQSPDSLAVSLGERATINCRASKSVSAAGYNFMHWYQQKPGQPPKVLIYYASNLESGVPDRFSGSGSGTDFTLTISSLQAEDVAVYYCLHSREFPFTFGGGTKVEIKR
notes: also called CDRH3 H98>F
A Kd of 0.325 nM was found for B13 in this work.

B14: Pos 99 Ala (antibody, V domains shown)
VH: EVQLVESGGGLVQPGGSLRLSCAASGFTFSSYAMSWVRQAPGKGLEWVATISDGGSFTYYLDNVRGRFTISRDNAKNSLYLQMNSLRAEDTAVYYCARDVGHATFWYFDVWGRGTLVTVSS
VL: DIVMTQSPDSLAVSLGERATINCRASKSVSAAGYNFMHWYQQKPGQPPKVLIYYASNLESGVPDRFSGSGSGTDFTLTISSLQAEDVAVYYCLHSREFPFTFGGGTKVEIKR
notes: also called CDRH3 T99>A
A Kd of 0.541 nM was found for B14 in this work.

B15: Pos 99 Cys (antibody, V domains shown)
VH: EVQLVESGGGLVQPGGSLRLSCAASGFTFSSYAMSWVRQAPGKGLEWVATISDGGSFTYYLDNVRGRFTISRDNAKNSLYLQMNSLRAEDTAVYYCARDVGHCTFWYFDVWGRGTLVTVSS
VL: DIVMTQSPDSLAVSLGERATINCRASKSVSAAGYNFMHWYQQKPGQPPKVLIYYASNLESGVPDRFSGSGSGTDFTLTISSLQAEDVAVYYCLHSREFPFTFGGGTKVEIKR
notes: also called CDRH3 T99>C
A Kd of 0.708 nM was found for B15 in this work.

B16: Pos 100B Glu (antibody, V domains shown)
VH: EVQLVESGGGLVQPGGSLRLSCAASGFTFSSYAMSWVRQAPGKGLEWVATISDGGSFTYYLDNVRGRFTISRDNAKNSLYLQMNSLRAEDTAVYYCARDVGHTTFEYFDVWGRGTLVTVSS
VL: DIVMTQSPDSLAVSLGERATINCRASKSVSAAGYNFMHWYQQKPGQPPKVLIYYASNLESGVPDRFSGSGSGTDFTLTISSLQAEDVAVYYCLHSREFPFTFGGGTKVEIKR
notes: also called CDRH3 W100B>E
A Kd of 0.491 nM was found for B16 in this work.
